Source: the Human Domainome abundance scans (Beltran et al. 2025)
± gives the uncertainty stated by the source.

B1: POU domain, class 4, transcription factor 3, residues 185 to 256; numbered along this chain, Q15319 (parent)
chain: RELEAFAERFKQRRIKLGVTQADVGAALANLKIPGVGSLSQSTICRFESLTLSHNNMIALKPVLQAWLEEAE

Variants of: B1
Experiment: abundance fitness (aPCA) (normalised: wild type 0, dead -1); higher = more abundant; growth selection in yeast, the domain comes from the species named
Conditions: Homo sapiens

Abundance fitness of substitutions, site by site:
A26: S -0.012 ± 0.025 | I -0.133 ± 0.068 | G -0.15 ± 0.03 | P -0.472 ± 0.053 | Y -0.144 ± 0.044 | Q -0.029 ± 0.045 | F -0.113 ± 0.046 | H -0.052 ± 0.058 | V -0.069 ± 0.026 | T -0.108 ± 0.039 | D -0.01 ± 0.052 | W -0.152 ± 0.036 | K 0.04 ± 0.047 | L -0.027 ± 0.025 | C -0.08 ± 0.04 | E -0.051 ± 0.044 | M -0.095 ± 0.035 | N -0.041 ± 0.053 | R -0.017 ± 0.028
G25: C 0.143 ± 0.099 | H -0.269 ± 0.21 | M -0.27 ± 0.11 | A 0.117 ± 0.11 | E -0.054 ± 0.17 | D -0.392 ± 0.25 | S -0.13 ± 0.13 | Q -0.531 ± 0.36 | F -0.13 ± 0.098 | K -0.311 ± 0.37 | V 0.05 ± 0.069 | L -0.159 ± 0.097 | W -0.317 ± 0.14 | R -0.203 ± 0.12 | N -0.963 ± 0.49
K16: P -0.968 ± 0.049 | W -0.224 ± 0.037 | V -0.099 ± 0.042 | I -0.192 ± 0.1 | G -0.129 ± 0.042 | Y -0.195 ± 0.091 | F -0.284 ± 0.058 | R -0.01 ± 0.027 | S 0.011 ± 0.027 | E 0.077 ± 0.067 | T -0.063 ± 0.033 | D -0.132 ± 0.32 | C 0.017 ± 0.051 | H -0.077 ± 0.045 | A 0.055 ± 0.039 | M 0.008 ± 0.039
T20: R -0.258 ± 0.022 | G -0.25 ± 0.03 | E -0.18 ± 0.043 | A -0.229 ± 0.031 | N -0.318 ± 0.089 | Q -0.27 ± 0.028 | I -0.623 ± 0.37 | P -0.273 ± 0.026 | H -0.221 ± 0.068 | K -0.183 ± 0.031 | D -0.562 ± 0.19 | S -0.095 ± 0.073
A22: V -0.298 ± 0.05 | L -0.265 ± 0.033 | K -0.263 ± 0.23 | F -0.163 ± 0.034 | Y -0.115 ± 0.052 | S -0.064 ± 0.035 | N -0.02 ± 0.074 | Q -0.214 ± 0.12 | T -0.207 ± 0.054 | W -0.329 ± 0.064 | G -0.055 ± 0.036 | I -0.5 ± 0.053 | R -0.087 ± 0.037 | H -0.107 ± 0.073 | P -0.469 ± 0.05 | C -0.264 ± 0.051 | D -0.176 ± 0.14 | M -0.179 ± 0.1
A27: C -0.266 ± 0.076
V19: T -0.192 ± 0.039 | N -0.154 ± 0.077
